How the values were obtained:
[1] = molecular target: ISAV-NP ΔC16 (aa 1–600) (infectious salmon anemia virus (ISAV)); assay: SEC; gel filtration chromatography (Superdex 200) of purified recombinant NP; size estimated against three protein standards
[2] = molecular target: ISAV-NP ΔC16 (aa 1–600) (infectious salmon anemia virus (ISAV)); assay: negative-staining electron microscopy; NP mixed with 24-nt RNA at 2:1 protein:RNA molar ratio in 100 mM NaCl, 25 mM HEPES pH 7.5, 25°C 30 min, purified by gel filtration before use
[3] = molecular target: the molecule itself; assay: SEC; gel filtration chromatography (Superdex 200) of purified recombinant NP; size estimated against three protein standards

| Molecule | stoichiometry N [1] | stoichiometry N [2] | stoichiometry N [3] |
| --- | --- | --- | --- |
| ISAV-NP ΔC16 (aa 1–600) (domain or fragment) | 2 | 2 | – |
| infectious salmon anemia virus nucleoprotein, full-length (aa 1–616) (natural protein, Nucleoprotein (NP) of infectious salmon anemia virus (ISAV), aa 1-616; Dimer in solution; also called ISAV-NP; wt NP; source: E. coli Rosetta 2 (DE3), purified (HisTrap HP, HiTrap Heparin HP, Superdex 200)) MADKGMTYSFDVRDNTLVVRRSTATKSGIKISYREDRGTSLLQKAFAGTEDEFWVELDQDVYVDKKIREFLVEEKMKDMSTRVSGAVAAAIERSVEFDNFSKEAAANIEMAGVDDEEAGGSGLVDNRRKNKGVSNMAYNLSLFIGMVFPALTTFFSAILSEGEMSIWQNGQAIMRILALADEDGKRQTRTGGQRVDMADVTKLNVVTANGKVKQVEVNLNDLKAAFRQSRPKRSDYRKGQGSKATESSISNQCMALIMKSVLSADQLFAPGVKMMRTNGFNASYTTLAEGANIPSKYLRHMRNCGGVALDLMGMKRIKNSPEGAKSKIFSIIQKKVRGRCRTEEQRLLTSALKISDGENKFQRIMDTLCTSFLIDPPRTTKCFIPPISSLMMYIQEGNSVLAMDFMKNGEDACKICREAKLKVGVNSTFTMSVARTCVAVSMVATAFCSADIIENAVPGSERYRSNIKANTTKPKKDSTYTIQGLRLSNVRYEARPETSQSNTDRSWQVNVTDSFGGLAVFNQGAIREMLGDGTSETTSVNVRALVKRILKSASERSARAVKTFMVGEQGKSAIVISGVGLFSIDFEGVEEAERITDMTPEIEFDEDDEEEEDIDI | – | – | 2 |

Reference: paper PMC3771910, “The Crystal Structure and RNA-Binding of an Orthomyxovirus Nucleoprotein” (PLoS Pathogens, 2013)
